Experimental findings from article PMC4730206, “The solution configurations of inactive and activated DntR have implications for the sliding dimer mechanism of LysR transcription factors” (Scientific Reports, 2016) are described below.

For test [1], the target named is T1, DntR (DntR-His6) (Burkholderia sp. DNT, UniProt Q7WT50).
T1 construct: full-length, C-terminal His6 tag (DntR-His6), recombinant, modelled to H303, homotetramer
T1 sequence (Q7WT50 1-301): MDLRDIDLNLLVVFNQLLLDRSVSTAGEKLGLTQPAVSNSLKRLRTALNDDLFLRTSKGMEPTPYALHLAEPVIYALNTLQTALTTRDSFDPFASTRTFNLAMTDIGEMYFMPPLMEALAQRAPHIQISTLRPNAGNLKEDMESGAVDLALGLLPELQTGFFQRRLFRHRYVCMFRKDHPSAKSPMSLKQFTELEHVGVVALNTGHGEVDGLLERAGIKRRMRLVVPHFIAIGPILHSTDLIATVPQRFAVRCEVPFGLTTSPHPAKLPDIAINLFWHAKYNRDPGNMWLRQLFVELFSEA
In words: Thermofluor thermal stability assay. Type of test: binding. The note with it: 100 µM sodium salicylate; inducer; apo-protein reference Tm in the 2nd table, row 4. The text has this: Thermofluor thermal stability assay on DntR (DntR-His6)
On the technique in general: Differential scanning fluorimetry follows unfolding on heating by fluorescence.

The target in test [2] is DntR-His6 from Burkholderia sp. (wild type) (Burkholderia sp.) (UniProt Q7WT50). In words: SAXS; static SAXS without inducer, in 1 M NaCl, 2 mM MgSO4, 1 mM DTT, 17% glycerol, 25 mM NaH2PO4-NaOH pH 8.0; apo-DntR at 3, 1 and 0.5 mg/mL (repeated as SEC-SAXS on Superdex 200), H169T-DntR at 0.7 mg/mL; fits to tetramer models.
For test [3] the target is unchanged. In words: crystal structure; apo-DntR crystals, hanging drops at 18 °C, 0.2 M sodium potassium tartrate, 0.1 M Tris-HCl pH 8.0, 5% PEG 6000; space group P6(5)22, two monomers in the asymmetric unit, tetramer from two symmetry-related dimers.
For test [4] the target is unchanged. In words: SAXS; static SAXS of apo-DntR pre-incubated with 100 μM sodium salicylate (holo-DntR); repeated as SEC-SAXS with 5 mM salicylate; rigid body modelling of a tetramer. (In general: In gel filtration, larger molecules generally elute earlier.)
Test [5] has as its target H169T-DntR-His6 (Burkholderia sp.) (UniProt Q7WT50). In words: SAXS; static SAXS without inducer, in 1 M NaCl, 2 mM MgSO4, 1 mM DTT, 17% glycerol, 25 mM NaH2PO4-NaOH pH 8.0; apo-DntR at 3, 1 and 0.5 mg/mL (repeated as SEC-SAXS on Superdex 200), H169T-DntR at 0.7 mg/mL; fits to tetramer models.
For test [6] the target is unchanged. Briefly: crystal structure; H169T-DntR crystals, 0.2 M sodium tartrate, 0.2 M potassium thiocyanate, 0.5 mM sodium salicylate, 0.1 M Tris pH 8.5, 20% PEG 8000; thiocyanate bound; space group P6(5)22, dimer in the asymmetric unit, tetramer from two symmetry-related dimers.

Usually stoichiometry N stands for a count of units in the complex or per binding partner.

Regarding `O=C(O)c1ccccc1O` [salicylate], in test [1], the “Tm (^oC)” value is 51 °C.
Regarding “DntR-His6 from Burkholderia sp. (wild type) (from UniProt Q7WT50 1-301) (natural protein)”, the stoichiometry N in test [2], in test [3] and in test [4] was 4 in each case.
For “H169T-DntR-His6 (from UniProt Q7WT50 1-301) (natural protein)”, the stoichiometry N in test [5] and in test [6] was 4 throughout.
